Values quoted from earlier work in US20210079079A1, “SYSTEMS AND METHODS FOR LOCAL MODULATION OF WNT SIGNALING” (Ortheus, Inc., priority 2018, published 2021).

Details: in vivo; cited from earlier work

DKK1: a secreted protein that inhibits canonical Wnt signaling
elimination half-life: less than 30 minutes
